Assay results published in the supplement of paper PMC12042874.
± gives the uncertainty stated by the source.

Assay: amyloid nucleation score (Sup35N fusion, yeast selection) (log enrichment); library NNK2; higher = more nucleation; inactive = no reads after selection
Procedure, shortened: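 For the nucleation score, DiMSum gave the log enrichment of output over input reads, centred on the mode score of non-aggregating sequences. Psi-negative yeast expressing Sup35N fused to peptides of 20 random codons were induced with 100 μM copper sulfate for 24 hours and grown 7 days at 30°C on medium lacking adenine and uracil. Input and output plasmid inserts were Illumina-sequenced, and sequences with under 100 input reads were excluded.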

| Substance | amyloid nucleation score |
| --- | --- |
| GSYMS | 3.54 ± 0.065 |
| GSYYCIDVGASRRPVWILSA | 0.855 ± 0.48 |
| GTGIHLLLLVGSGDSSREMM | -1.08 ± 0.36 |
| GTGINLSFLYFAAGVLCSSS | -1.52 ± 1.1 |
| GTGMTYAIWLSGIGRMRFYY | -0.816 ± 0.33 |
| GTLPYFKN | -0.641 ± 0.74 |
| GTRGVVLISMSWRVDLHWKP | inactive |
| GTRSGSSDV | 0.31 ± 0.5 |
| GTRYDT | 0.468 ± 0.32 |
| GTSMCRELNVHNAWRGIHMG | 0.615 ± 0.29 |
| GTVNKSMVTSLTVPLIVC | 0.442 ± 0.28 |
| GTVTLV | 3.99 ± 0.11 |
| GTYFNLYAGVLSVRQWPPHI | 4.42 ± 0.061 |
| GVCFSFVFM | 8.487 ± 0.064 |
| GVGEEGARVKWIVCNKCFFP | 2.1 ± 0.12 |
| GVHMSDRVNTMSD | -0.129 ± 1.1 |
| GVLYWALLDGGVQRGQDMKL | 0.641 ± 0.62 |
| GVMIRKSARYYL | -0.275 ± 0.79 |
| GVNSLVERFNLWYVLGERTF | -0.35 ± 0.33 |
| GVRRRRIRRWLNVSGRYMCE | 2.38 ± 0.23 |
| GVSSKKV | 4.768 ± 0.047 |
| GVSVMKVLYLCTIDKALCFG | 6.06 ± 0.068 |
| GVTLNSCFFNRVYLTLFGIN | 6.946 ± 0.031 |
| GVVWKYRIFPWTFPHNFFHL | -0.665 ± 0.39 |
| GVYPICV | 0.416 ± 0.49 |

| Substance | amyloid nucleation score |
| --- | --- |
| GWAKPMGFNLILR | 0.265 ± 0.31 |
| GWCRYLKDLYI | -1.1 ± 0.36 |
| GWSMCRVSRLTMLVSVVFFC | 0.377 ± 0.26 |
| GWSSSGVVIRVPGSFRLVGR | 1.39 ± 0.45 |
| GWVLI | -0.994 ± 1.1 |
| GYAVRRYDLMNLFRSMWASC | -0.739 ± 0.79 |
| GYAYLSLHKA | 0.342 ± 0.2 |
| GYCETNFGGCVPDWMEMLQR | 6.67 ± 0.061 |
| GYCLSVTSR | 0.641 ± 0.74 |
| GYDIISQKLGIQSYQKCTFI | -1.86 ± 0.62 |
| GYGSSYLMQARSNRRISVFL | -0.758 ± 0.79 |
| GYLQGLCRG | -0.047 ± 1.1 |
| GYPSARIKSDMYWNPMNVPT | -0.114 ± 0.37 |
| GYRLGHRRGGFGVLNGFYGD | -0.157 ± 0.79 |
| GYVRRSIGYSLLSVVS | -0.121 ± 0.46 |
| GYYGARFLVFKFMVRRWMMT | inactive |
| GYYRFLSSLLELTV | -0.628 ± 0.76 |
| GYYYLFFILG | 4.78 ± 0.075 |
| HAGMIYILYVNLRRTSKRMG | 3.86 ± 0.072 |
| HAKTWM | 0.066 ± 1 |
| HARVKLVIILLTLREGGMFW | -0.108 ± 0.62 |
| HAYFFLRDRVRCSIFVIVTT | -0.453 ± 0.78 |
| HAYSWNNRPVGVVRSRSRLF | -0.597 ± 0.34 |
| HAYYHLILDVLFPDGLWL | -0.938 ± 0.36 |
| HCFALGR | 0.088 ± 0.21 |

| Substance | amyloid nucleation score |
| --- | --- |
| HCGFDQVLEGLTLR | 0.097 ± 0.42 |
| HCKSDPWLEPTSVWVFIRLV | 0.818 ± 0.23 |
| HCLGVFARFWIWVGPDGLVI | -1.2 ± 0.78 |
| HCLIMGDNDGTLRTLGGR | -0.104 ± 0.65 |
| HCRYWVCCQLLVILTYSEAF | inactive |
| HCSCVKNSTSTDIEE | inactive |
| HDYGLCTGVDIWITLSCCDR | 9.637 ± 0.029 |
| HDYVLFISECHKLLGAS | inactive |
| HDYYMSVSLMGWY | -1.02 ± 0.34 |
| HEGNKRARYLALLSEIYFQW | 4.65 ± 0.084 |
| HERGTNVLYTLVEWGARAVS | 1.16 ± 0.49 |
| HESHHSALFDCLGWQVLVWL | 6.827 ± 0.049 |
| HFITCFLDRHGALVCYCSES | 4.76 ± 0.11 |
| HFSYKPVEYPLFSRFKPVFN | -0.025 ± 0.79 |
| HFWCLRCDTIHDSFNYSVVQ | 7.373 ± 0.055 |
| HGDNFSEVATTFNCMMLLNV | -0.243 ± 1.1 |
| HGDVIRCRTKIIIAVFGMFM | 6.21 ± 0.076 |
| HGGFGYR | -0.336 ± 0.49 |
| HGSQRFDFWGGYRYW | 0.83 ± 0.13 |
| HHFNCCTGNFYIYKLDDSLI | 5.485 ± 0.048 |
| HHIGGMIS | -0.09 ± 0.3 |
| HHWRGALGFVCWGRFEERWV | -0.567 ± 0.23 |
| HIAID | 0.401 ± 0.56 |
| HIFFTDKFGGYVFLYPDFVA | inactive |
| HIKDNQSSSV | 0.196 ± 0.44 |

| Substance | amyloid nucleation score |
| --- | --- |
| HILICFWRVQVLKSACLYWT | 1.74 ± 0.11 |
| HILRRINIWGGFPCMRVSKN | -0.755 ± 1.1 |
| HIMSIDVPSNLSLQFIMVGY | 0.306 ± 0.64 |
| HLCHLLRSEHCRNGGSEKSR | 1.61 ± 0.29 |
| HLDYAGYIGDRSHTDFASGR | 0.519 ± 0.46 |
| HLEMRPAMRIPLLRTDFWKV | 0.665 ± 0.19 |
| HLGHKKVRWDMSAELWQ | 2.75 ± 0.1 |
| HLGVGFLWSVRFIYMTFGFS | inactive |
| HLTVFVDLSVRLRQMYRRYS | 5.56 ± 0.069 |
| HLWGTKFMAFVARFV | -0.12 ± 0.79 |
| HLWVWFRYSSRSFSHMLGDC | 2.92 ± 0.15 |
| HLYLEYGNVTWGWVMVLIVG | inactive |
| HLYMH | 1.62 ± 0.18 |
| HMSCMSLSVIFDIILNLCSL | 6.097 ± 0.06 |
| HMYVGHGLNVFAYISMLGVY | inactive |
| HNGSNFGTWSQGSLRHVRAR | -0.023 ± 0.31 |
| HNVGILWSSCCSRMYIAYAY | -0.288 ± 1 |
| HNVVRGFCLVFTIYHSGRTR | 5.1 ± 0.082 |
| HPDDTMKFSSRTHITTQTDR | 0.908 ± 0.52 |
| HQVFPAKAGLPALVYLLGFY | 0.602 ± 0.81 |
| HRAWSSVCSKYSSTGTRNLI | 2.99 ± 0.14 |
| HRFSGVVIYNINRSSTIGN | 7.328 ± 0.04 |
| HRFSLRNHCRSFSSGHLVHN | -1.24 ± 0.75 |
| HRRVVAPNKCWMSLACFWDL | 4.33 ± 0.053 |
| HSAMFLYTKHVSPPGSWRVL | 1.6 ± 0.13 |

| Substance | amyloid nucleation score |
| --- | --- |
| HSDMFRKIQVLILSVERQNE | inactive |
| HSFPRCNSVHWPDDIGGCDG | 4.58 ± 0.047 |
| HSFTTMFWNSAMY | 4.11 ± 0.062 |
| HSLLGPGPVPSYPQFSSPGR | inactive |
| HSLSWKCV | 0.346 ± 0.74 |
| HSLVS | -0.266 ± 1 |
| HSNPYRKLIQLTMTGITGTV | 0.033 ± 0.48 |
| HTAMCAVSGFRNIWSKPVKF | -0.817 ± 1.1 |
| HTITNTL | -0.06 ± 1.1 |
| HTQSLVRVCWIYIRLPRSTP | 0.393 ± 0.2 |
| HTSMWFL | -0.145 ± 1.1 |
| HVLHCTYSQSSMEQLFCFNW | inactive |
| HVYFSCAYWQPVYMYCCGKQ | 7.771 ± 0.059 |
| HWKAFYL | 1.13 ± 0.59 |
| HWKVENRLNSMEWKSMGGQN | 3.97 ± 0.053 |
| HWLTKISGTTPELYPRERVV | 0.071 ± 0.25 |
| HWSLGSYFGYNFGR | 5.67 ± 0.062 |
| HWYLRSV | 0.239 ± 0.43 |
| HYCYRHIGRLQMWMKSGLHA | 1.04 ± 0.34 |
| HYISRHQLWILFFVKCVNSR | 5.01 ± 0.1 |
| HYLNIRQDPY | 2.4 ± 0.21 |
| HYQWQYACLWRCVTVRGSDQ | 0.949 ± 0.17 |
| HYSIIWTAS | 0.233 ± 0.46 |
| HYVYFGYECAFGGG | -0.365 ± 0.76 |
| HYWIVRLDAWVSQSVRWCNP | 10.95 ± 0.079 |

| Substance | amyloid nucleation score |
| --- | --- |
| IAAMTFFMMCLTYCVLWIAW | 1.71 ± 0.31 |
| IADIVQGSGVAT | -0.178 ± 0.26 |
| IARFSKKTSVSMGTRCAT | 0.122 ± 0.3 |
| ICGCKRSTVLWVSCFGV | 3.18 ± 0.12 |
| ICIFHDWVIIICCSIRMRCL | -0.823 ± 0.63 |
| ICKFFSIGVH | 1.14 ± 0.68 |
| ICMAGEVGKQRGYLDGGMP | 0.505 ± 0.54 |
| ICPPAWFKRVNDGGVYALNE | 0.904 ± 0.48 |
| ICQCPVNTANTQLGVGTRLK | 0.114 ± 0.5 |
| ICRNGLSL | 0.098 ± 0.26 |
| ICRPGYGY | inactive |
| ICSCTGTYVVRNRMTGTL | -0.786 ± 0.49 |
| ICSSPLRIISINKLSGTYNL | 2.25 ± 0.14 |
| ICWPSLLYAPGTVKMSTERV | 0.706 ± 0.6 |
| IDCRELFVSLQVNRMLE | 0.234 ± 0.49 |
| IDLFFAYSHRV | 4.501 ± 0.044 |
| IDNEMYFAHGIRGDSLL | inactive |
| IDRCRNC | inactive |
| IENRLWIWSLH | 0.673 ± 0.32 |
| IERPVRVHRYKT | inactive |
| IESSVCPGRRPGLLPTLKAG | 0.901 ± 0.31 |
| IFAVGTTTASKCVWKIVEQE | 2.09 ± 0.11 |
| IFDIWTSIAVRDLLLNGRSW | 0.561 ± 0.31 |
| IFFALNSTPPYYIYPEFKLQ | inactive |
| IFFVSDVESNIGRWLRRCFP | 5.465 ± 0.054 |

| Substance | amyloid nucleation score |
| --- | --- |
| IFHLGLRR | 5.706 ± 0.053 |
| IFISRVNDFTVMGGDWSFRG | 3.64 ± 0.083 |
| IFKINVVVSSNTAQ | 2.4 ± 0.21 |
| IFKQVTIYLYGGRSLLGSRR | -0.507 ± 0.54 |
| IFPVLPGTLYRCTMMC | -0.612 ± 0.32 |
| IFSLP | -0.464 ± 0.5 |
| IFWAYAICCIYGLRGCRGEY | 6.64 ± 0.084 |
| IFYSSLALVWLYNLMDRECT | 2.18 ± 0.17 |
| IGCSWSKQELVISNLLVFLF | -1.52 ± 0.62 |
| IGILSREGYWGGNRFLGYQL | -1.32 ± 0.62 |
| IGKGRFNVYCMN | -0.64 ± 0.79 |
| IGSRSMNYWLVVFD | 1.48 ± 0.11 |
| IGSWVVEFGRFGYCFHGVID | 3.19 ± 0.089 |
| IGTMVEREKL | 0.299 ± 0.39 |
| IHDALTRCEWGSVSPRSSGC | 0.682 ± 0.28 |
| IHKETGLEIVARRKVHFDGG | 0.524 ± 0.26 |
| IHLPKCISVSFRVSVGFLDM | inactive |
| IHNPLVRY | -0.366 ± 0.41 |
| IICNLKISSMQDKGVMQAVF | -0.871 ± 0.28 |
| IICSNRQIRFKKGDFFIVFW | inactive |
| IIFPGCKYLRYKDKEK | inactive |
